# Measured values from publication PMC6625990, “Structural underpinnings of Ric8A function as a G-protein α-subunit chaperone and guanine-nucleotide exchange factor” (Nature Communications, 2019).
# Residue numbers refer to the chain shown, from its start. Names may count otherwise. Like-named read-outs stand apart in the source and are kept apart here.
# B1: Ric8A1–492: bovine Ric8A construct truncated at the C-terminus (residues 1–492) (protein)
# chain: MEPRAVADALETGEEDVVMEALRAYNRENSQSFTFDDAQQEDRKRLAKLLVSVLEQGLPPSRRVIWLQSIRILSRDRSCLDSFTSRRSLQALACYAGISASQGSVPEPLNMDVVLESLKCLCNLVLSSPVAQALAAEAGLVVRLAERVGLCRQSSFPHDVQFFDLRLLFLLTALRTDVRQQLFQELQGVRLLTRALELTLGMTEGERHPELLPPQETERAMEILKVLFNITFDSIKREVDEEDAALYRHLGTLLRHCVMLAAAGDRTEELHGHAVNLLGNLPVKCLDVLLTLEPHEGSLEFLGVNMDVIRVLLSFMEKRLHQTHRLKESVAPVLSVLTECARMHRPARKFLKAQVLPPLRDVRTRPEVGELLRNKLVRLMTHLDTDVKRVAAEFLFVLCSESVPRFIKYTGYGNAAGLLAARGLMAGGRPEGQYSEDEDTDTDEYKEAKASINPVTGRVEEKPPNPMEGMTEEQKEHEAMKLVNMFDKLSRH
# modifications: left off: His6, N-terminal, state not stated
# B2: R75M: R75M mutant of Ric8A1–492 (protein, UniProt Q5E9J8 1-492, looked up, variant R75M)
# chain: B1 chain with R75M
# modifications: residues 1-492
# How the values were obtained:
# Gαi = assay: GTPγS binding to Gαi (GDP/GTPγS exchange, GEF activity of Ric8A constructs); format: biochemical; conditions: for Rate of GDP/GTPγS exchange reaction on Gαi: same conditions
# Experimental: The rates of GTPγS binding to Gαi in the absence or presence of Ric8A1–492 (Ric8A1–452) were measured by following the increase in fluorescence of Gαi tryptophan. Gαi (1 µM) was mixed with GDP (1 µM) in a fluorescence cuvette, in 20 mM Tris-HCl (pH 8.0) buffer containing 150 mM NaCl, 5% glycerol, 1 mM TCEP and 10 mM MgCl2, and incubated for 2 min. The binding reaction was initiated by addition of Ric8A1–492 or Ric8A1–452 (1 µM each) and/or and GTPγs (10 µM). Fluorescence at 340 nm was monitored with the excitation set at 295 nm. Data were fit to an equation for one phase association using the GraphPad Prism 7.05 software.
# [1] = DSF thermostability of Ric8A constructs and Ric8A1–492 mutants (protein alone); format: physicochemical, bovine; conditions: DSF; for mean Tm / Tm (C ): protein alone, source data; for mean Tm: mean of replicates
# Experimental: Stabilities of Ric8A constructs with and without peptide ligands were assessed using differential scanning fluorimetry (DSF), in which an increase in fluorescence of the Sypro Orange dye is measured. Ric8A1–492, Ric8A1–452 and Ric8A1–426 in 20 mM Tris-HCl (pH 7.5) buffer containing 150 mM KCl, 5% glycerol, and 1 mM TCEP with and without peptide were used at a final concentration of 0.5 mg/ml and were supplemented with a 1000-fold dilution of Sypro Orange dye (Invitrogen). Temperature was increased at 1 °C/minute and fluorescence signals were recorded using real-time PCR (C1000 Touch thermal cycler, Bio Rad), with the cycler set to FRET mode and the excitation wavelength set at 450–490 nm and the emission wavelength at 560–580 nm.
# Gαt333–350 = assay: BLI: Ric8A1–492 and its mutants binding to biotinylated Gαt333–350; conditions: for Kd: BLI steady state, source data
# Experimental: (§1) An Octet RED96 system and streptavidin (SA)-coated biosensors (FortéBio, Menlo Park, CA) were used to measure association and dissociation kinetics for Gα peptides or the full-length Avi-tagged Gαt in relation to Ric8A1–492, Ric8A1–452, and Ric8A1–426. To obtain the Avi-tagged Gαt, Gαt was cloned into modified pET21a vector with the N-terminal His6-tag followed by the Avi tag and TEV cleavage site[59]. The Avi-tagged I340Q/N343H mutant of Gαt was prepared by QuikChange protocol. BL21(DE3) cells for expression of the Avi-tagged Gαt were grown in 2TY media supplemented with biotin (10 mg/liter), induced at OD600 of 0.6 with 50 µM IPTG and further grown overnight at 16 °C. Binding studies were performed in 20 mM Tris, 150 mM KCl, 5% glycerol, 1 mM TCEP, 0.5 mg/ml BSA, pH 8.0. All steps were performed at 26 °C, with biosensors stirred into 0.2 ml of sample in each well at 1000 rpm, and at a data acquisition rate of 5.0 Hz. N-terminally biotinylated Gαt333–350, Gαs363–380, C1 peptide and C2 peptide were loaded onto SA sensors at a concentration of 0.05, 0.05, 0.005, and 0.01 mg/ml for 40–90 seconds. Data for association and dissociation phases of the assay were collected as shown in Fig. 1b and Supplementary Figs. 8, 11, 12, and 14. To correct for baseline drift and non-specific binding, reference sensors lacking bound Gα peptide were used in the BLI assays with Ric8A proteins at the highest concentrations. Kinetic data fitting was performed using FortéBio Data Analysis software 10.0. For each concentration of Ric8A1–492, dissociation rate constant (kd) values were calculated from the corresponding dissociation phases of the curves. These kd values were used to calculate the association rate constant (ka) values from the association phases for each concentration according to the equation1 ka=kobserved-kd∕Ric8A1-492 The average ka and kd were calculated as means of the individual ka and kd values for all curves. Equilibrium dissociation constant KD was calculated as mean kd/mean ka. Steady-state data fitting was performed using the GraphPad Prism 7 software with the equation for one site specific binding.
# Gαt [2] = assay: BLI: Ric8A1–492 and its mutants binding to full-length Avi-tagged Gαt; conditions: BLI steady state, source data
# Experimental: as §1
# Gαt [3] = assay: SEC co-migration of Ric8A1–492 R75M mutant with full-length Gαt; format: binding
# Experimental: Ric8A1–492/miniGαi complex was prepared by mixing Ric8A with miniGαi at a 1:1.5 molar ratio. The complex was purified by SEC using a HiLoad 16/600 Superdex 200 pg column equilibrated with 20 mM Tris-HCl (pH 8.0) buffer containing 150 mM KCl, 5% glycerol, and 1 mM TCEP. This procedure removed excess miniGαi, ensuring 1:1 stoichiometry of the complex. Ric8A1–492/Gαt complexes were purified by mixing Ric8A1–492 with Gαt (1:1.5 molar ratio), followed by SEC using Superdex 200 10/300 GL column (GE healthcare) to remove excess Gαt. […]
# with Gαt. (A) Ric8A1-492 was mixed with Gαt and loaded onto a MW-calibrated Superdex 200 10/300 column. SEC profile - black curve. Blue curve and a gel in the inset with a blue outline represent SEC profile of Ric8A1-492 alone. Red curve and a gel in the inset with a red outline represent SEC profile of Gαt alone. (B) Peak fractions in A analyzed by SDS-PAGE. Peak 1 containing the Ric8A1-492/Gαt complex is not fully resolved from peak 2 corresponding to Ric8A1-492 alone. (C) The R75M mutant of Ric8A1-492 was mixed with Gαt and loaded onto a MW-calibrated Superdex 200 16/600 column. SEC profile - black curve. Blue line and a gel in inset represent SEC profile of R75M alone. Red curve – SEC profile of Gαt alone. (D) Peak fractions in C analyzed by SDS-PAGE. […]
molecule,measurement,setting,value
B1,"Rate of GDP/GTPγS exchange reaction on Gαi, mean","Gαi; Gαi 1 µM, GDP 1 µM, Ric8A construct 1 µM, GTPγS 10 µM, 20 mM Tris-HCl pH 8.0, 150 mM NaCl, 5% glycerol, 1 mM TCEP, 10 mM MgCl2, tryptophan fluorescence ex 295 nm, em 340 nm, one phase association fit, mean",0.3229
same,Rate of GDP/GTPγS exchange reaction on Gαi,Gαi; replicate 1,0.2658
same,Rate of GDP/GTPγS exchange reaction on Gαi,Gαi; replicate 2,0.38
same,Tm,"[1]; Sypro Orange, protein alone 0.5 mg/ml, 20 mM Tris-HCl pH 7.5, 150 mM KCl, 5% glycerol, 1 mM TCEP, 1 °C/minute, mean ± SD (n = 3)",46.8 ± 0.2 °C
same,mean Tm,[1],46.8 C
same,Tm (C ),[1]; replicate 1,46.9 C
same,Tm (C ),[1]; replicate 2,46.96 C
same,Tm (C ),[1]; replicate 3,46.7 C
same,Kd,"Gαt333–350; experiment 1, read-out: KD (uM), Gαt333-350",0.27 µM
same,Kd,"Gαt333–350; experiment 2, read-out: KD (uM), Gαt333-350",0.33 µM
same,Kd,"Gαt333–350; experiment 3, read-out: KD (uM), Gαt333-350",0.33 µM
same,Kd,"Gαt333–350; experiment 4, read-out: KD (uM), Gαt333-350",0.19 µM
same,Kd,"Gαt333–350; mean of replicates, read-out: Mean KD, Gαt333-350",0.28 µM
same,Kd,"Gαt333–350; representative experiment, read-out: KD, steady-state curve of Figure 1c",0.27 µM
same,Kd,"Gαt [2]; experiment 1, read-out: KD (nM), Gαt",22.6 nM
same,Kd,"Gαt [2]; experiment 2, read-out: KD (nM), Gαt",27 nM
same,Kd,"Gαt [2]; experiment 3, read-out: KD (nM), Gαt",23.1 nM
same,Kd,"Gαt [2]; mean of replicates, read-out: mean KD, Gαt",24.2 nM
B2,interaction with full-length Gαt (in words),Gαt [3],disruption of the interaction
same,mean Tm,[1],45.9 C
same,Tm (C ),[1]; replicate 1,45.86 C
same,Tm (C ),[1]; replicate 2,45.81 C
same,Tm (C ),[1]; replicate 3,45.88 C
same,Tm (C ),[1]; replicate 4,45.96 C
same,binding to Gαt333–350 (in words),Gαt333–350; BLI,ablated the binding
